How the values were obtained:
[1] = target: HLA-A*68:02; experiment: IEDB peptide-MHC binding, purified MHC/competitive/radioactivity; filed as Kd, often an IC50 or EC50 that approximates it; ≥ and ≤ were set here for values at or beyond the usual limits of such assays
[2] = target: HLA-A*02:06; experiment: as above
[3] = target: HLA-B*35:01; experiment: as above
[4] = target: HLA-B*08:01; experiment: as above
[5] = target: HLA-A*24:02; experiment: as above
[6] = target: HLA-A*30:02; experiment: as above
[7] = target: HLA-A*26:01; experiment: as above
[8] = target: HLA-A*23:01; experiment: as above
[9] = target: HLA-A*01:01; experiment: as above
[10] = target: HLA-A*29:02; experiment: as above
[11] = target: HLA-B*51:01; experiment: as above
[12] = target: HLA-B*58:01; experiment: IEDB peptide-MHC binding, purified MHC/direct/fluorescence; filed as Kd, often an IC50 or EC50 that approximates it; ≥ and ≤ were set here for values at or beyond the usual limits of such assays; conditions: source organism: Salmonella enterica
[13] = target: HLA-B*57:01; experiment: as above; conditions: source organism: Salmonella enterica
[14] = target: HLA-A*02:01; experiment: IEDB peptide-MHC binding, purified MHC/competitive/fluorescence; filed as Kd, often an IC50 or EC50 that approximates it; ≥ and ≤ were set here for values at or beyond the usual limits of such assays
[15] = target: HLA-A*02:01; experiment: IEDB peptide-MHC binding, purified MHC/competitive/fluorescence; ≥ and ≤ were set here for values at or beyond the usual limits of such assays
[16] = target: HLA-B*53:01; experiment: IEDB peptide-MHC binding, purified MHC/competitive/radioactivity; filed as Kd, often an IC50 or EC50 that approximates it; ≥ and ≤ were set here for values at or beyond the usual limits of such assays
[17] = target: HLA-A*02:03; experiment: as above
[18] = target: HLA-A*02:02; experiment: as above
[19] = target: HLA-B*40:01; experiment: as above; conditions: source organism: Dengue virus 2 Jamaica/1409/1983
[20] = source organism: Dengue virus 3 Martinique/1243/1999
[21] = source organism: Dengue virus 4 Philippines/H241/1956
[22] = source organism: Lymphocytic choriomeningitis virus (strain Armstrong)
[23] = source organism: Vaccinia virus WR
[24] = source organism: Dengue virus 2 Jamaica/1409/1983
[25] = source organism: Mammarenavirus caliense
[26] = source organism: Hepacivirus hominis
[27] = source organism: SARS coronavirus Tor2
[28] = source organism: Mammarenavirus machupoense
[29] = source organism: Dengue virus 1 Brazil/97-11/1997
[30] = source organism: Hepatitis C virus (isolate 1)
[31] = source organism: Trypanosoma cruzi
[32] = source organism: Dengue virus 3 Singapore/8120/1995
[33] = source organism: Mammarenavirus whitewaterense

KLKKLEEEQI
Kd ([1]; source organism: Homo sapiens): ≥ 60 µM
Kd ([2]; source organism: Homo sapiens): ≥ 59.1 µM

MAMVLSIVS
Kd ([3]; source organism: Dengue virus 1 Singapore/S275/1990): 0.659 µM

DRRSFFKCF
Kd ([4]; source organism: Vaccinia virus Copenhagen): 0.0757 µM

LRTTTVSGKL
Kd [4, 20]: 9.54 µM

LMKMKKKTWL
Kd [4, 21]: 0.0241 µM

VKIPTHRHI
Kd [5, 22]: ≥ 77.5 µM
Kd [6, 22]: ≥ 76.9 µM
Kd [7, 22]: ≥ 77.9 µM
Kd [8, 22]: ≥ 77.7 µM
Kd [9, 22]: ≥ 78.1 µM
Kd [10, 22]: 15.4 µM

NVMKRINCF
Kd [4, 23]: 0.0198 µM

MAISGDDCVV
Kd [11, 24]: 4.86 µM

RSRCRLHHL
Kd [12]: 0.598 µM
Kd [13]: 3.54 µM

YQPDTGNYI
Kd [5, 25]: 5.26 µM
Kd [8, 25]: 5.79 µM
Kd [10, 25]: ≥ 78.9 µM

LCLIPTVMAF
Kd ([8]; source organism: Dengue virus 4 Dominica/814669/1981): 0.454 µM

LLCPAGHAV
Kd ([14]; source organism: Hepatitis C virus subtype 1b): 0.0124 µM
IC50 [15, 26]: 35.4 µM

LDESFLGRY
Kd [5, 27]: ≥ 77.6 µM
Kd [6, 27]: 0.163 µM
Kd [7, 27]: 12.7 µM
Kd [8, 27]: ≥ 77.8 µM
Kd [9, 27]: 2.61 µM
Kd [10, 27]: 1.54 µM

RFKTKGRYNL
Kd [5, 28]: 0.579 µM
Kd [8, 28]: 0.0875 µM
Kd [10, 28]: 0.104 µM

VSIINNAVY
Kd [5, 27]: ≥ 58.7 µM
Kd [6, 27]: 0.00917 µM
Kd [7, 27]: 15.3 µM
Kd [8, 27]: ≥ 44.3 µM
Kd [9, 27]: 0.883 µM
Kd [10, 27]: 1.07 µM

ILDSFDPLV
Kd [14, 26]: 0.0006 µM

MAYMIGQTGI
Kd [11, 21]: 0.0571 µM

VPLLAIGCY
Kd [3, 24]: 0.168 µM

RTAGMIIMLI
Kd ([1]; source organism: Dengue virus 2 Peru/IQT2913/1996): 0.0616 µM

MLVTPSMTM
Kd [3, 20]: 3.84 µM

TSMSFSCIAI
Kd [1, 20]: 0.00123 µM

APALQEAYY
Kd [5, 27]: ≥ 77.6 µM
Kd [6, 27]: 0.365 µM
Kd [7, 27]: ≥ 65.6 µM
Kd [8, 27]: ≥ 77.8 µM
Kd [9, 27]: ≥ 109 µM
Kd [10, 27]: 1.99 µM

FPGKTVWFV
Kd [16, 29]: 0.0861 µM
Kd [11, 29]: 6.36 µM

SVYTTMFGGV
Kd [1, 21]: 0.00963 µM
Kd [17, 21]: 0.00823 µM
Kd [2, 21]: 0.00196 µM

LAHAIGTSI
Kd [11, 29]: 0.157 µM

ELREIFRRL
Kd [4, 23]: 0.0265 µM

TSSMRGVYY
Kd [5, 27]: ≥ 77.6 µM
Kd [6, 27]: 0.124 µM
Kd [7, 27]: 8.3 µM
Kd [8, 27]: ≥ 77.8 µM
Kd [9, 27]: 0.0693 µM
Kd [10, 27]: 0.263 µM

MASVEPHWI
Kd [16, 29]: 1.4 µM
Kd [11, 29]: 1.79 µM

LAGPMPVTV
Kd [11, 29]: 0.87 µM

LYLTQDLFL
Kd [5, 27]: ≥ 70.3 µM
Kd [6, 27]: ≥ 81.1 µM
Kd [7, 27]: ≥ 34 µM
Kd [8, 27]: ≥ 81.7 µM
Kd [9, 27]: ≥ 20.4 µM
Kd [10, 27]: ≥ 71.9 µM

TVFFVLMMLV
Kd [1, 21]: 0.0387 µM

VNREGKIVGL
Kd [4, 29]: ≥ 35.6 µM

CINGVCWTV
IC50 ([15]; source organism: Hepatitis C virus genotype 1): ≥ 50 µM
Kd [1, 30]: 3.78 µM
Kd [17, 30]: 6.44 µM
Kd [18, 30]: 3.35 µM
Kd [2, 30]: 4.37 µM

MFISLFMIL
Kd [4, 23]: 0.223 µM

ILEDQNCKL
Kd ([1]; source organism: Homo sapiens): ≥ 60 µM

ALEAKIAQL
Kd ([1]; source organism: Homo sapiens): 7.3 µM
Kd ([17]; source organism: Homo sapiens): 0.0467 µM
Kd ([18]; source organism: Homo sapiens): 0.0148 µM
Kd ([2]; source organism: Homo sapiens): 1.1 µM

SAKRITESI
Kd [4, 23]: 0.119 µM

IPPTAGVLA
Kd [11, 20]: 6.14 µM

SCKVKIVPL
Kd [4, 23]: 1.43 µM

QKQTQRSGVL
Kd [4, 20]: 5.8 µM

EPGQLKLNWF
Kd [16, 24]: 0.593 µM
Kd [3, 24]: ≥ 42 µM

NLEKKITNV
Kd ([14]; source organism: Vaccinia virus WR 65-16): 0.216 µM

DKRMKSLAM
Kd [4, 23]: 0.00985 µM

SLIPRLVDF
Kd [4, 23]: 0.0127 µM

ALRPSTSRSL
Kd ([1]; source organism: Homo sapiens): ≥ 60 µM

FMYTKHSML
Kd [4, 23]: 0.0002 µM
Kd [17, 23]: 0.000394 µM
Kd [18, 23]: 0.0024 µM
Kd [2, 23]: 0.222 µM

LYSACFWWL
Kd ([5]; source organism: Homo sapiens): 0.028 µM

NYCEGTTVVI
Kd [5, 20]: 0.0434 µM
Kd [8, 20]: 0.101 µM

FVNHRFTLV
Kd [1, 31]: 0.0893 µM
Kd [17, 31]: 0.00138 µM
Kd [18, 31]: 0.0818 µM
Kd [2, 31]: 0.00657 µM

RWGLLLALL
Kd ([5]; source organism: Homo sapiens): 0.0045 µM

RTTWALCESI
Kd [1, 29]: 0.139 µM

LLVTHYAII
Kd [4, 32]: 0.667 µM
Kd [17, 32]: 0.0392 µM

LAIMAVFKM
Kd [3, 21]: 0.0222 µM

TATLILAGV
Kd [1, 20]: 0.00107 µM

LPEIEDEVF
Kd [16, 29]: 1.24 µM
Kd [3, 29]: 0.0881 µM

TPEGIIPSM
Kd [16, 24]: 0.252 µM
Kd [3, 24]: 0.00757 µM

ASMAICSAV
Kd [1, 21]: 0.0637 µM

PYIASRSQI
Kd [5, 33]: 2.81 µM
Kd [8, 33]: 0.492 µM
Kd [10, 33]: ≥ 78.9 µM

IENSSVNVSL
Kd [4, 24]: 0.764 µM
Kd [19]: 0.00159 µM

LTMKNKAWMV
Kd [1, 20]: 0.0167 µM

IANQAAILM
Kd [3, 29]: 0.103 µM

ALRSRIREL
Kd [4, 23]: 0.000455 µM

VLPFDIKKL
Kd [14, 23]: 0.525 µM

MWLGARYLEF
Kd [5, 20]: 0.0977 µM
Kd [8, 20]: 0.00354 µM

SRHQRLHDE
Kd [4, 23]: 0.453 µM
